From IntAct's records for PubMed 31515488

Legend:
[1] = biological target: pls1_human PLSCR1 (UniProt O15162)
[2] = biological target: T1, prdx3_human PRDX3 (UniProt P30048)
T1 sequence: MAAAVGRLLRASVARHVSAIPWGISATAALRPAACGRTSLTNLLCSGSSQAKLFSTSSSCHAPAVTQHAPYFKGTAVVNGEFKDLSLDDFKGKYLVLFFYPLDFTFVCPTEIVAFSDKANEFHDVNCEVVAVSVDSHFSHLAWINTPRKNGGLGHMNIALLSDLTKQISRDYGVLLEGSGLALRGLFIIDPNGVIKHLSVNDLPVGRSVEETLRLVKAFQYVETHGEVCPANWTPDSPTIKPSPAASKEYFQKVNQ

[3] = biological target: zmat1_human ZMAT1 (UniProt Q5H9K5)
[4] = biological target: ei2ba_human EIF2B1 (UniProt Q14232)
[5] = biological target: dpyl2_human DPYSL2 (UniProt Q16555)
[6] = biological target: T2, dmc1_human DMC1 (UniProt Q14565)
T2 sequence: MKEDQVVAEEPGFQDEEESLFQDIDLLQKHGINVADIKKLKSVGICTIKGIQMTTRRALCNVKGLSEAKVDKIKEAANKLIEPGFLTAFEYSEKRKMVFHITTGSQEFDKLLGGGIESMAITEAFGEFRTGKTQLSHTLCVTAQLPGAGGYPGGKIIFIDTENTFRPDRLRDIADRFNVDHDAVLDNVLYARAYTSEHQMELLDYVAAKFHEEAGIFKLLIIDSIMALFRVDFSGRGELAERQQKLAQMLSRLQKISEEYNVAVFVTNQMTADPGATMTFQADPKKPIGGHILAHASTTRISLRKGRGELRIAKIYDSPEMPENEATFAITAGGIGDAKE

[7] = biological target: cryaa_human CRYAA (UniProt P02489)
[8] = biological target: T3, acy3_human ACY3 (UniProt Q96HD9)
T3 sequence: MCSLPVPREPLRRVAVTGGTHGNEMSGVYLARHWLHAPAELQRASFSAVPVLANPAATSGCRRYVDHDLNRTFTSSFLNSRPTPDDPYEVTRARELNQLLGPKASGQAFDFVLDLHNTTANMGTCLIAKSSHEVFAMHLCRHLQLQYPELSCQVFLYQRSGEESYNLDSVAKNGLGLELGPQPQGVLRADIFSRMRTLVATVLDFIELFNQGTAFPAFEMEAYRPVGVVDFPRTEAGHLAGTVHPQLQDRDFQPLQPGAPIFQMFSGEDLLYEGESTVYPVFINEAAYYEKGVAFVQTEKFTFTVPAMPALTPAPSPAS

[9] = biological target: phs_human PCBD1 (UniProt P61457)
[10] = biological target: T4, creb3_human CREB3 (UniProt O43889)
T4 sequence: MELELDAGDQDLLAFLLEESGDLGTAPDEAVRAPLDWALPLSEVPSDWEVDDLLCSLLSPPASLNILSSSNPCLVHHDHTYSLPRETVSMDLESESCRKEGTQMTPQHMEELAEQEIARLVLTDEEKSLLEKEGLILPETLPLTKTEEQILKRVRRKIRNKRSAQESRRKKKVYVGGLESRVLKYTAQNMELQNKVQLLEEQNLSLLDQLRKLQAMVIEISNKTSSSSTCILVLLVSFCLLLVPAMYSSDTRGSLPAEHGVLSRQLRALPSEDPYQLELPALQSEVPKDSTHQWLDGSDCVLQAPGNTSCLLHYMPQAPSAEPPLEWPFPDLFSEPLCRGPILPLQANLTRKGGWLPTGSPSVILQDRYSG

[11] = biological target: BCL2L13 (UniProt Q9BXK5)
[12] = biological target: aakb2_human PRKAB2 (UniProt O43741)
[13] = biological target: zbt24_human ZBTB24 (UniProt O43167)
[14] = biological target: zsc32_human ZSCAN32 (UniProt Q9NX65)
[15] = biological target: pacn1_human PACSIN1 (UniProt Q9BY11)
[16] = biological target: T5, efhc2_human EFHC2 (UniProt Q5JST6)
T5 sequence: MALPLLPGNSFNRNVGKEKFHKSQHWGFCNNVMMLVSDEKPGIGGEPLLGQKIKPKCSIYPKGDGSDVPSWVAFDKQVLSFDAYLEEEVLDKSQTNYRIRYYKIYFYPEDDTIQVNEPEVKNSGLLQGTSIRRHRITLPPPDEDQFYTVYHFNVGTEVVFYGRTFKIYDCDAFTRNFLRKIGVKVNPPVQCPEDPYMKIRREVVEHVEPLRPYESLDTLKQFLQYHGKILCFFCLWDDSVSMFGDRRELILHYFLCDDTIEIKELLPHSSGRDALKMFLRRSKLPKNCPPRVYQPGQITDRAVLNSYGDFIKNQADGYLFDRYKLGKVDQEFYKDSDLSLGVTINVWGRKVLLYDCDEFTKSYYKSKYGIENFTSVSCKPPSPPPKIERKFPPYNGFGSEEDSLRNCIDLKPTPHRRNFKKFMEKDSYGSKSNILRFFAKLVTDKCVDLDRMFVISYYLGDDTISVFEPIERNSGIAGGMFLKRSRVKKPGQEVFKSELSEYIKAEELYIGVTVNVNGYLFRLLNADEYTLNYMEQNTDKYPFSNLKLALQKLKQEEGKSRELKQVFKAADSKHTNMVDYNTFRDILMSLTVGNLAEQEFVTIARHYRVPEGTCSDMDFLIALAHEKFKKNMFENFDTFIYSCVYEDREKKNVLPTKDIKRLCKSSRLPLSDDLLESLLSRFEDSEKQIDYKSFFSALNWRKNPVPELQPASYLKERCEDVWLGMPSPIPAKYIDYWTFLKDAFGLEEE

[17] = biological target: emp3_human EMP3 (UniProt P54852)
[18] = biological target: ppla_human PLN (UniProt P26678)
[19] = biological target: mal_human MAL (UniProt P21145)
[20] = biological target: vatl_human ATP6V0C (UniProt P27449)
[21] = biological target: dpyl3_human DPYSL3 (UniProt Q14195)
[22] = biological target: dpyl2_human DPYSL2 (UniProt Q16555); remark: listed apart in the source
[23] = biological target: T6, dpyl5_human DPYSL5 (UniProt Q9BPU6)
T6 sequence: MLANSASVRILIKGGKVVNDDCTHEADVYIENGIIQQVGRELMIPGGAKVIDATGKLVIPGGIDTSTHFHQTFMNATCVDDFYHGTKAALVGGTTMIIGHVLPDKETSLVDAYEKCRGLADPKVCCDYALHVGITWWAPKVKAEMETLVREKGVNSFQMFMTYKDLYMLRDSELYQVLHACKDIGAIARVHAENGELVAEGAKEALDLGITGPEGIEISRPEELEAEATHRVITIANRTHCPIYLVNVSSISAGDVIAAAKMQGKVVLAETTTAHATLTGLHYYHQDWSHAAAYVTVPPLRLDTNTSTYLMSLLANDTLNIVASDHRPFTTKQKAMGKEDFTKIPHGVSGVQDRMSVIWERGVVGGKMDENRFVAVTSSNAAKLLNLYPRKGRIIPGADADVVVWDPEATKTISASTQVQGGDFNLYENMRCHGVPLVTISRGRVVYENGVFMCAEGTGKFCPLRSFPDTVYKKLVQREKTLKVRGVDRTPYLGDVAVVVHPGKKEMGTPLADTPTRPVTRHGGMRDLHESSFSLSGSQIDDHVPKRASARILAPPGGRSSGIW

[24] = biological target: gors2_human GORASP2 (UniProt Q9H8Y8)
[25] = biological target: cep70_human CEP70 (UniProt Q8NHQ1)
[26] = biological target: elmo1_human ELMO1 (UniProt Q92556)
[27] = biological target: trip6_human TRIP6 (UniProt Q15654)
[28] = biological target: nasp_human NASP (UniProt P49321)
[29] = biological target: T7, traf4_human TRAF4 (UniProt Q9BUZ4)
T7 sequence: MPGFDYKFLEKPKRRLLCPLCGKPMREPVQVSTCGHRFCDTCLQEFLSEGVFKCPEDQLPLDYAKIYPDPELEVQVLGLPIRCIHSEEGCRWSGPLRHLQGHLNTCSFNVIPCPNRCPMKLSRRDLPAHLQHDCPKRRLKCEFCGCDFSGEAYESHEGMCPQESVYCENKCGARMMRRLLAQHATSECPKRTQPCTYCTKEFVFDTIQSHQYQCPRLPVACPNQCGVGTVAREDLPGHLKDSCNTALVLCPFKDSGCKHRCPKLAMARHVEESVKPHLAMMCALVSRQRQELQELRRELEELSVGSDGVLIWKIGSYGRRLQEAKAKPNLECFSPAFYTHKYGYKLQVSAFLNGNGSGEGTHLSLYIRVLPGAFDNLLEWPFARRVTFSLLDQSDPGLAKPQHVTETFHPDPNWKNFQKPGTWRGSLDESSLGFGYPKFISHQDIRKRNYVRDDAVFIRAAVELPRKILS

[30] = biological target: bnip3_human BNIP3 (UniProt Q12983)
[31] = biological target: lerl1_human LEPROTL1 (UniProt O95214)
[32] = biological target: npal3_human NIPAL3 (UniProt Q6P499)
[33] = biological target: lnx1_human LNX1 (UniProt Q8TBB1)
[34] = biological target: ck068_human C11orf68 (UniProt Q9H3H3)
Sequence of ck068_human C11orf68 (Q9H3H3 whole entry): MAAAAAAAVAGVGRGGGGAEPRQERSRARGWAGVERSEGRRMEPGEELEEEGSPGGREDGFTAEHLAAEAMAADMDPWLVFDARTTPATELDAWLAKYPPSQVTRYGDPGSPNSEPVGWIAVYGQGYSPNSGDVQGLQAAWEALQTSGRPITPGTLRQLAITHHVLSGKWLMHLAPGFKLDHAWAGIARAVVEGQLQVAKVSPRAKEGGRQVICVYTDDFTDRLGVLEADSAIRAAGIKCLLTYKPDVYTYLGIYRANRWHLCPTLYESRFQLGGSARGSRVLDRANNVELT

Sequence of Isoform 1 of Ectodysplasin-A (Homo sapiens), Q92838-1 P118L (Q92838 whole entry P118L, canonical isoform): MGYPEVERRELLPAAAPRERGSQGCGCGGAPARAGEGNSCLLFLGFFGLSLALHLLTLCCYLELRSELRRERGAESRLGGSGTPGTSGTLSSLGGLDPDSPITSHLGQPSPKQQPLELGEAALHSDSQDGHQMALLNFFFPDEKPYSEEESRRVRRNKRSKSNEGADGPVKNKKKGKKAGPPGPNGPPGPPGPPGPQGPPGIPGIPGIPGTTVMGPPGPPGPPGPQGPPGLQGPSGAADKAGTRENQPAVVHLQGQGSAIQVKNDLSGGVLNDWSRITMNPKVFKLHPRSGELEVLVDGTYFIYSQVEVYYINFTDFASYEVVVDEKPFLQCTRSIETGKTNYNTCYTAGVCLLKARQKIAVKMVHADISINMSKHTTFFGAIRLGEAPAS
Sequence of Ectodysplasin-A (Homo sapiens), Q92838 R334H (Q92838 whole entry R334H): as the sequence (Q92838 whole entry P118L, canonical isoform) above, with L118P, R334H counted along it
Sequence of Regulator of G-protein signaling 3 (Homo sapiens), P49796-4 R528Q (P49796 other isoform, or with tags, fused parts or gaps R528Q): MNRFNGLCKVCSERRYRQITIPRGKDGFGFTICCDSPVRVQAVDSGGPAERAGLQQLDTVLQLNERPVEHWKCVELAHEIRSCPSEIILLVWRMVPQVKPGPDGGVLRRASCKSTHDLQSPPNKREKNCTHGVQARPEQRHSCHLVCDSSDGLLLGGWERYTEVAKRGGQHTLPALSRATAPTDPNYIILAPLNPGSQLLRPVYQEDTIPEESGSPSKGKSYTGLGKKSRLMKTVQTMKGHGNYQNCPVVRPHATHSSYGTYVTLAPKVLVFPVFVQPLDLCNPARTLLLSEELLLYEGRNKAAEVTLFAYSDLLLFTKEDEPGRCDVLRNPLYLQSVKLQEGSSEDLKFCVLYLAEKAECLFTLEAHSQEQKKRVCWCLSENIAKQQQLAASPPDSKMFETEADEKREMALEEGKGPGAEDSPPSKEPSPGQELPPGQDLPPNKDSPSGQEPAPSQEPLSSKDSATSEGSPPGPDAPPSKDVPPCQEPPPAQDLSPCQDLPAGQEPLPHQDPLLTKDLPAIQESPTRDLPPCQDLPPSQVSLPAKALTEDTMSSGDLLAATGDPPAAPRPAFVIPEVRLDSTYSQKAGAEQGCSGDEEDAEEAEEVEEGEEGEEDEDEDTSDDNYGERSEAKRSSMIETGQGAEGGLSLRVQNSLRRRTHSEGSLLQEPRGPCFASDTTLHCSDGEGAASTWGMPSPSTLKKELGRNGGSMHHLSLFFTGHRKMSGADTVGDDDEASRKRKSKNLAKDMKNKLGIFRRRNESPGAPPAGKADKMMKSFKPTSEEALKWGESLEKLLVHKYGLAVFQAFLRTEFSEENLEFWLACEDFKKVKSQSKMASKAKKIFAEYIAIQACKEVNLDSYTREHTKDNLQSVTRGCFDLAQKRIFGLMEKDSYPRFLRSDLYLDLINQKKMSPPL
Sequence of pacn1_human PACSIN1 (Q9BY11 whole entry): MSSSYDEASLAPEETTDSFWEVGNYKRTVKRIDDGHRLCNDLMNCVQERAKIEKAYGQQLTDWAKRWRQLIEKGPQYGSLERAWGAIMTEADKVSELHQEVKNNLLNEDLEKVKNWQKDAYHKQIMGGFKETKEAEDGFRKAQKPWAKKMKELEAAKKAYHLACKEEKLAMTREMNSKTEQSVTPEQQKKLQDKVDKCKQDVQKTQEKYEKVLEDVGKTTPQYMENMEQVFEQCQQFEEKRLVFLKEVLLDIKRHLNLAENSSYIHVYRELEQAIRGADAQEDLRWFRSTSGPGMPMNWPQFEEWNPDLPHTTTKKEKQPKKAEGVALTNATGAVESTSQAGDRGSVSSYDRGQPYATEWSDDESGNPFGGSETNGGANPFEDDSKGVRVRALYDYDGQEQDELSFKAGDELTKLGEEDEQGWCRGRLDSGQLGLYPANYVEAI
Sequence of emp3_human EMP3 (P54852 whole entry): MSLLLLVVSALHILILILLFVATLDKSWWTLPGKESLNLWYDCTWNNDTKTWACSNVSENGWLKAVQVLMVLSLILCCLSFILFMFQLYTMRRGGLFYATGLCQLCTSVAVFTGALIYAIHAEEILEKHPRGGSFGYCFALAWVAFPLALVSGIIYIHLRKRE
Sequence of Rho-related GTP-binding protein RhoQ (Homo sapiens), P17081 E68K (P17081 whole entry E68K): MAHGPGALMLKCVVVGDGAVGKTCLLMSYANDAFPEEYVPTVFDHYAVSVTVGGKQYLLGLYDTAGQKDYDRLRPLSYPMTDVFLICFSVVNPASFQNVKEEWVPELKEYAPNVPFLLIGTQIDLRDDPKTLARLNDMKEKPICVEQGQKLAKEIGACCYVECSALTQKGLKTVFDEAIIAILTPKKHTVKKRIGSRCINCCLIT
Sequence of BCL2L13 (Q9BXK5 whole entry): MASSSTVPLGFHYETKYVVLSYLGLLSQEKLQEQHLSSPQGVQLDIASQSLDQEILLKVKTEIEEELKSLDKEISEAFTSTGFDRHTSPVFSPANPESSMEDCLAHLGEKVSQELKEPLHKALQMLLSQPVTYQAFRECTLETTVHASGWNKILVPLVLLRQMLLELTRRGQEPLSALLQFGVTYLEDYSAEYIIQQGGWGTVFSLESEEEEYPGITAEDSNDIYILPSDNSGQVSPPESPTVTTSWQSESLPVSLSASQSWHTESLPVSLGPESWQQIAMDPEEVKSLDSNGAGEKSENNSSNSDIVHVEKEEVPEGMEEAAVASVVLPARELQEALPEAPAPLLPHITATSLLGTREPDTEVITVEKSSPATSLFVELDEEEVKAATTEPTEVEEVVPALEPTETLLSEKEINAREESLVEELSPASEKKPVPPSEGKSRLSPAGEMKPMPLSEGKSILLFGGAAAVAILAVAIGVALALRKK
Sequence of bnip3_human BNIP3 (Q12983 whole entry): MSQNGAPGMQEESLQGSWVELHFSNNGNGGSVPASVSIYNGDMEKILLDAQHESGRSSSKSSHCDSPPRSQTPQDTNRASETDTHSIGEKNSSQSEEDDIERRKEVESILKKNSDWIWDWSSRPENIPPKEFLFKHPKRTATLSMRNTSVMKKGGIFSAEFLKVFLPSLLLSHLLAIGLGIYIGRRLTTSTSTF
Sequence of ei2ba_human EIF2B1 (Q14232 whole entry): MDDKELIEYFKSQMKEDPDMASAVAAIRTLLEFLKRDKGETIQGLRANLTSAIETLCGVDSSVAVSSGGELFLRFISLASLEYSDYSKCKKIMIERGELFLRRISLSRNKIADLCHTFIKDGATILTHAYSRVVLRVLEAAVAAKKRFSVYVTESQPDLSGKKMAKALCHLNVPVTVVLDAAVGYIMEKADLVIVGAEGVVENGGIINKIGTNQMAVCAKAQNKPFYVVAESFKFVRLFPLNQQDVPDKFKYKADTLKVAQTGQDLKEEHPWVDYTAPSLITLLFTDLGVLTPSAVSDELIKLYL
Sequence of lnx1_human LNX1 (Q8TBB1 whole entry): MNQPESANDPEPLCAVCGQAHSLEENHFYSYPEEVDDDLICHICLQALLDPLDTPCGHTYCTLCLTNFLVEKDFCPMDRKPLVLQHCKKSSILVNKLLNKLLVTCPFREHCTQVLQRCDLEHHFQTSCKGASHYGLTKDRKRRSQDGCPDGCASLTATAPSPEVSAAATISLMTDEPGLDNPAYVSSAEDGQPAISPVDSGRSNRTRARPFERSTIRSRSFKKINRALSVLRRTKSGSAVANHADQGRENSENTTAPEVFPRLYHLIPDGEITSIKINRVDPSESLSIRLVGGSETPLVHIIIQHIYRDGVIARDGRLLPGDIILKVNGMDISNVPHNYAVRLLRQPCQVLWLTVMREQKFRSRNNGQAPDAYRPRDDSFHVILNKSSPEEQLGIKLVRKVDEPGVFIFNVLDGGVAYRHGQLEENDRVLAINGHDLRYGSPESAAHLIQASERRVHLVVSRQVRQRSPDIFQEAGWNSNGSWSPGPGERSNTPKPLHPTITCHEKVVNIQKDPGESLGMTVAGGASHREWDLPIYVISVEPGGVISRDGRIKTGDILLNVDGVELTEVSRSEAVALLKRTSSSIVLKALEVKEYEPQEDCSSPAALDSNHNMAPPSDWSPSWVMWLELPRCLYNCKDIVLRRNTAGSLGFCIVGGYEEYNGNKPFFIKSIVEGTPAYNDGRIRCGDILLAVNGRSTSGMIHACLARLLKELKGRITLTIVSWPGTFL
Sequence of aakb2_human PRKAB2 (O43741 whole entry): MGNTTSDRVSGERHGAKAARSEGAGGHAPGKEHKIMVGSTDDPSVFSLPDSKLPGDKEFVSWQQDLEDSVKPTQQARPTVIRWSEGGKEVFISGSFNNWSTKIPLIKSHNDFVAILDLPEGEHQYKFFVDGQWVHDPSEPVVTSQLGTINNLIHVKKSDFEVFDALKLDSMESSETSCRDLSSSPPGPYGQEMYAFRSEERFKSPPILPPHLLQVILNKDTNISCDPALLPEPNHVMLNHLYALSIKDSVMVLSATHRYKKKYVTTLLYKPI
Sequence of phs_human PCBD1 (P61457 whole entry): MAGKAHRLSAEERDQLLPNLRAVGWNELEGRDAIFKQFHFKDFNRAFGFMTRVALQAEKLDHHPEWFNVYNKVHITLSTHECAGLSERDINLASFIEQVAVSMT

Regulator of G-protein signaling 3 (Homo sapiens), P49796-4 R528Q
effect of a mutation on the interaction [1]: with no effect

Golgi reassembly-stacking protein 2 (Homo sapiens) (from UniProt Q9H8Y8) S441C
effect of a mutation on the interaction [2]: disrupting interaction strength
effect of a mutation on the interaction [3]: with no effect
effect of a mutation on the interaction [4]: with no effect
effect of a mutation on the interaction [5]: with no effect
effect of a mutation on the interaction [6]: with no effect
effect of a mutation on the interaction [7]: with no effect
effect of a mutation on the interaction [8]: with no effect
effect of a mutation on the interaction [9]: with no effect

Integral membrane protein 2B (Homo sapiens) (from UniProt Q9Y287) P31H
effect of a mutation on the interaction [10]: with no effect
effect of a mutation on the interaction [11]: with no effect

Krueppel-like factor 15 (Homo sapiens), Q9UIH9 A199V
effect of a mutation on the interaction [12]: with no effect
effect of a mutation on the interaction [13]: with no effect

Zinc finger protein with KRAB and SCAN domains 1 (Homo sapiens), P17029 R155K
effect of a mutation on the interaction [14]: with no effect

Protein kinase C and casein kinase substrate in neurons protein 3 (Homo sapiens) (from UniProt Q9UKS6) A61V
effect of a mutation on the interaction [15]: disrupting interaction strength

Chloride intracellular channel protein 3 (Homo sapiens) (from UniProt O95833) M210L
effect of a mutation on the interaction [16]: with no effect

Isoform 1 of Ectodysplasin-A (Homo sapiens), Q92838-1 P118L
effect of a mutation on the interaction [17]: with no effect
effect of a mutation on the interaction [18]: with no effect
effect of a mutation on the interaction [19]: with no effect
effect of a mutation on the interaction [20]: with no effect

Dihydropyrimidinase-related protein 2 (Homo sapiens) (from UniProt Q16555-1) R481C
effect of a mutation on the interaction [21]: disrupting interaction strength
effect of a mutation on the interaction [22]: disrupting interaction strength
effect of a mutation on the interaction [23]: with no effect
effect of a mutation on the interaction [24]: disrupting interaction strength

Zinc finger protein 302 (Homo sapiens), Q9NR11 R391H
effect of a mutation on the interaction [25]: with no effect

Zinc finger protein 398 (Homo sapiens), Q8TD17 E87D
effect of a mutation on the interaction [26]: with no effect

Rho-related GTP-binding protein RhoQ (Homo sapiens), P17081 E68K
effect of a mutation on the interaction [27]: with no effect

Histone H3.3C (Homo sapiens) (from UniProt Q6NXT2) R53C
effect of a mutation on the interaction [28]: with no effect

Large ribosomal subunit protein bL28m (Homo sapiens) (from UniProt Q13084) D160E
effect of a mutation on the interaction [29]: with no effect

Integral membrane protein 2B (Homo sapiens) (from UniProt Q9Y287) I237T
effect of a mutation on the interaction [30]: with no effect

Ectodysplasin-A (Homo sapiens), Q92838 R334H
effect of a mutation on the interaction [31]: with no effect
effect of a mutation on the interaction [32]: with no effect

Eukaryotic translation initiation factor 4H (Homo sapiens), Q15056 G164V
effect of a mutation on the interaction [33]: with no effect
effect of a mutation on the interaction [34]: with no effect
